Where “and” joins values, the source holds several entries; their conditions need not be identical. Identical values can stand only once.
B1: RNF122: human RING type E3 ligase expressed from lentiviral vector (protein, UniProt Q9H9V4 1-155, looked up)
RING finger protein 122: MHPFQWCNGCFCGLGLVSTNKSCSMPPISFQDLPLNIYMVIFGTGIFVFMLSLIFCCYFISKLRNQAQSERYGYKEVVLKGDAKKLQLYGQTCAVCLEDFKGKDELGVLPCQHAFHRKCLVKWLEVRCVCPMCNKPIASPSEATQNIGILLDELV
B2: TRIM74: human RING type E3 ligase expressed from lentiviral vector (protein, UniProt Q86UV6 1-250, looked up)
Tripartite motif-containing …: MAWQVSLLELEDWLQCPICLEVFKESLMLQCGHSYCKGCLVSLSYHLDTKVRCPMCWQVVDGSSSLPNVSLAWVIEALRLPGDPEPKVCVHHRNPLSLFCEKDQELICGLCGLLGSHQHHPVTPVSTVCSRMKEELAALFSELKQEQKKVDELIAKLVKNRTRIVNESDVFSWVIRREFQELRHPVDEEKARCLEGIGGHTRGLVASLDMQLEQAQGTRERLAQAECVLEQFGNEDHHEFIWKFHSMASR
modifications: lentiviral expression
notes: human RING type E3 ligase expressed from lentiviral vector
B3: RNF111: human RING type E3 ligase expressed from lentiviral vector (protein, UniProt Q6ZNA4 1-994, looked up)
E3 ubiquitin-protein ligase …: MSQWTPEYNELYTLKVDMKSEIPSDAPKTQESLKGILLHPEPIGAAKSFPAGVEMINSKVGNEFSHLCDDSQKQEKEMNGNQQEQEKSLVVRKKRKSQQAGPSYVQNCVKENQGILGLRQHLGTPSDEDNDSSFSDCLSSPSSSLHFGDSDTVTSDEDKEVSVRHSQTILNAKSRSHSARSHKWPRTETESVSGLLMKRPCLHGSSLRRLPCRKRFVKNNSSQRTQKQKERILMQRKKREVLARRKYALLPSSSSSSENDLSSESSSSSSTEGEEDLFVSASENHQNNPAVPSGSIDEDVVVIEASSTPQVTANEEINVTSTDSEVEIVTVGESYRSRSTLGHSRSHWSQGSSSHASRPQEPRNRSRISTVIQPLRQNAAEVVDLTVDEDEPTVVPTTSARMESQATSASINNSNPSTSEQASDTASAVTSSQPSTVSETSATLTSNSTTGTSIGDDSRRTTSSAVTETGPPAMPRLPSCCPQHSPCGGSSQNHHALGHPHTSCFQQHGHHFQHHHHHHHTPHPAVPVSPSFSDPACPVERPPQVQAPCGANSSSGTSYHEQQALPVDLSNSGIRSHGSGSFHGASAFDPCCPVSSSRAAIFGHQAAAAAPSQPLSSIDGYGSSMVAQPQPQPPPQPSLSSCRHYMPPPYASLTRPLHHQASACPHSHGNPPPQTQPPPQVDYVIPHPVHAFHSQISSHATSHPVAPPPPTHLASTAAPIPQHLPPTHQPISHHIPATAPPAQRLHPHEVMQRMEVQRRRMMQHPTRAHERPPPHPHRMHPNYGHGHHIHVPQTMSSHPRQAPERSAWELGIEAGVTAATYTPGALHPHLAHYHAPPRLHHLQLGALPLMVPDMAGYPHIRYISSGLDGTSFRGPFRGNFEELIHLEERLGNVNRGASQGTIERCTYPHKYKKVTTDWFSQRKLHCKQDGEEGTEEDTEEKCTICLSILEEGEDVRRLPCMHLFHQVCVDQWLITNKKCPICRVDIEAQLPSES
B4: TRIM68: human RING type E3 ligase expressed from lentiviral vector (protein, UniProt Q6AZZ1 1-485, looked up)
E3 ubiquitin-protein ligase …: MDPTALVEAIVEEVACPICMTFLREPMSIDCGHSFCHSCLSGLWEIPGESQNWGYTCPLCRAPVQPRNLRPNWQLANVVEKVRLLRLHPGMGLKGDLCERHGEKLKMFCKEDVLIMCEACSQSPEHEAHSVVPMEDVAWEYKWELHEALEHLKKEQEEAWKLEVGERKRTATWKIQVETRKQSIVWEFEKYQRLLEKKQPPHRQLGAEVAAALASLQREAAETMQKLELNHSELIQQSQVLWRMIAELKERSQRPVRWMLQDIQEVLNRSKSWSLQQPEPISLELKTDCRVLGLREILKTYAADVRLDPDTAYSRLIVSEDRKRVHYGDTNQKLPDNPERFYRYNIVLGSQCISSGRHYWEVEVGDRSEWGLGVCKQNVDRKEVVYLSPHYGFWVIRLRKGNEYRAGTDEYPILSLPVPPRRVGIFVDYEAHDISFYNVTDCGSHIFTFPRYPFPGRLLPYFSPCYSIGTNNTAPLAICSLDGED
B5: RNF212: human RING type E3 ligase expressed from lentiviral vector (protein, UniProt Q495C1 1-297, looked up)
Probable E3 SUMO-protein …: MANWVFCNRCFQPPHRTSCFSLTNCGHVYCDACLGKGKKNECLICKAPCRTVLLSKHTDADIQAFFMSIDSLCKKYSRETSQILEFQEKHRKRLLAFYREKISRLEESLRKSVLQIEQLQSMRSSQQTAFSTIKSSVSTKPHGCLLPPHSSAPDRLESMEVDLSPSPIRKSEIAAGPARISMISPPQDGRMGPHLTASFCFIPWLTLSKPPVPGECVISRGSPCFCIDVCPHWLLLLAFSSGRHGELTNSKTLPIYAEVQRAVLFPFQQAEGTLDTFRTPAVSVVFPLCQFERKKSF
B6: TRIM72: human RING type E3 ligase expressed from lentiviral vector; listed twice (protein, UniProt Q6ZMU5 1-477, looked up)
Tripartite motif-containing …: MSAAPGLLHQELSCPLCLQLFDAPVTAECGHSFCRACLGRVAGEPAADGTVLCPCCQAPTRPQALSTNLQLARLVEGLAQVPQGHCEEHLDPLSIYCEQDRALVCGVCASLGSHRGHRLLPAAEAHARLKTQLPQQKLQLQEACMRKEKSVAVLEHQLVEVEETVRQFRGAVGEQLGKMRVFLAALEGSLDREAERVRGEAGVALRRELGSLNSYLEQLRQMEKVLEEVADKPQTEFLMKYCLVTSRLQKILAESPPPARLDIQLPIISDDFKFQVWRKMFRALMPALEELTFDPSSAHPSLVVSSSGRRVECSEQKAPPAGEDPRQFDKAVAVVAHQQLSEGEHYWEVDVGDKPRWALGVIAAEAPRRGRLHAVPSQGLWLLGLREGKILEAHVEAKEPRALRSPERRPTRIGLYLSFGDGVLSFYDASDADALVPLFAFHERLPRPVYPFFDVCWHDKGKNAQPLLLVGPEGAEA
B7: RNF25: human RING type E3 ligase expressed from lentiviral vector; listed twice (protein, UniProt Q96BH1 1-459, looked up)
E3 ubiquitin-protein ligase …: MAASASAAAGEEDWVLPSEVEVLESIYLDELQVIKGNGRTSPWEIYITLHPATAEDQDSQYVCFTLVLQVPAEYPHEVPQISIRNPRGLSDEQIHTILQVLGHVAKAGLGTAMLYELIEKGKEILTDNNIPHGQCVICLYGFQEKEAFTKTPCYHYFHCHCLARYIQHMEQELKAQGQEQEQERQHATTKQKAVGVQCPVCREPLVYDLASLKAAPEPQQPMELYQPSAESLRQQEERKRLYQRQQERGGIIDLEAERNRYFISLQQPPAPAEPESAVDVSKGSQPPSTLAAELSTSPAVQSTLPPPLPVATQHICEKIPGTRSNQQRLGETQKAMLDPPKPSRGPWRQPERRHPKGGECHAPKGTRDTQELPPPEGPLKEPMDLKPEPHSQGVEGPPQEKGPGSWQGPPPRRTRDCVRWERSKGRTPGSSYPRLPRGQGAYRPGTRRESLGLESKDGS
modifications: lentiviral expression
B8: RNF144B: human RING type E3 ligase expressed from lentiviral vector (protein, UniProt Q7Z419 1-303, looked up)
E3 ubiquitin-protein ligase …: MGSAGRLHYLAMTAENPTPGDLAPAPLITCKLCLCEQSLDKMTTLQECQCIFCTACLKQYMQLAIREGCGSPITCPDMVCLNHGTLQEAEIACLVPVDQFQLYQRLKFEREVHLDPYRTWCPVADCQTVCPVASSDPGQPVLVECPSCHLKFCSCCKDAWHAEVSCRDSQPIVLPTEHRALFGTDAEAPIKQCPVCRVYIERNEGCAQMMCKNCKHTFCWYCLQNLDNDIFLRHYDKGPCRNKLGHSRASVMWNRTQVVGILVGLGIIALVTSPLLLLASPCIICCVCKSCRGKKKKHDPSTT
modifications: lentiviral expression
notes: as for B2
B9: TRIML1: human RING type E3 ligase expressed from lentiviral vector (protein, UniProt Q8N9V2 1-468, looked up)
Probable E3 ubiquitin-protein …: MSTADLMENLREELTCFICLDYFSSPVTTECGHSFCLVCLLRSWEEHNTPLSCPECWRTLEGPHFQSNERLGRLASIARQLRSQVLQSEDEQGSYGRMPTTAKALSDDEQGGSAFVAQSHGANRVHLSSEAEEHHREKLQEILNLLRVRRKEAQAVLTHEKERVKLCQEETKTCKQVVVSEYMKMHQFLKEEEQLQLQLLEQEEKENMRKLRNNEIKLTQQIRSLSKMIAQIESSSQSSAFESLEEVRGALERSEPLLLQCPEATTTELSLCRITGMKEMLRKFSTEITLDPATANAYLVLSEDLKSVKYGGSRQQLPDNPERFDQSATVLGTQIFTSGRHYWEVEVGNKTEWEVGICKDSVSRKGNLPKPPGDLFSLIGLKIGDDYSLWVSSPLKGQHVREPVCKVGVFLDYESGHIAFYNGTDESLIYSFPQASFQEALRPIFSPCLPNEGTNTDPLTICSLNSHV
B10: TRIM75: human RING type E3 ligase expressed from lentiviral vector; listed twice (protein, UniProt A6NK02 1-468, looked up)
Tripartite motif-containing …: MAVAAALTGLQAEAKCSICLDYLSDPVTIECGHNFCRSCIQQSWLDLQELFPCPVCRHQCQEGHFRSNTQLGRMIEIAKLLQSTKSNKRKQEETTLCEKHNQPLSVFCKEDLMVLCPLCTQPPDHQGHHVRPIEKAAIHYRKRFCSYIQPLKKQLADLQKLISTQSKKPLELREMVENQRQELSSEFEHLNQFLDREQQAVLSRLAEEEKDNQQKLSANITAFSNYSATLKSQLSKVVELSELSELELLSQIKIFYESENESSPSIFSIHLKRDGCSFPPQYSALQRIIKKFKVEIILDPETAHPNLIVSEDKKRVRFTKRKQKVPGFPKRFTVKPVVLGFPYFHSGRHFWEIEVGDKSEWAIGICKDSLPTKARRPSSAQQECWRIELQDDGYHAPGAFPTPLLLEVKARAIGIFLDYEMGEISFYNMAEKSHICTFTDTFTGPLRPYFYVGPDSQPLRICTGTVCE

Tested on: coxsackievirus B3 (CVB3-GFP)
Type: cell-based
Details: HeLa cells, replicate R1; for Percent Infected R1: GFP-positive cells within RFP-positive gate

Molecule	Percent Infected R1	Z score R1
B1	90.3%	0.02
B2	71.6%	−0.216
B3	84.2%	−0.06
B4	62%	−0.338
B5	91.1%	0.03
B6	60.2% and 88.1%	−0.361 and −0.01
B7	90.6% and 89.2%	0.03 and 0.01
B8	93.9%	0.07
B9	77.6%	−0.14
B10	66.8% and 89.7%	−0.277 and 0.01
